Reference: the Immune Epitope Database (IEDB)
One block for each sequence: values may come before it.

Assays:
HLA-A*30:01 = assay: IEDB peptide-MHC binding, purified MHC/competitive/radioactivity; filed as Kd, often an IC50 or EC50 that approximates it; ≥ and ≤ were set here for values at or beyond the usual limits of such assays
HLA-A*32:01 = assay: as above
HLA-B*08:01 = assay: as above
HLA-B*15:01 = assay: as above
HLA-B*15:03 = assay: as above
HLA-A*01:01 = assay: as above; settings: source organism: Hepacivirus hominis
HLA-A*02:01 = assay: as above; settings: source organism: Hepacivirus hominis
HLA-A*02:02 = assay: as above; settings: source organism: Hepacivirus hominis
HLA-A*02:03 = assay: as above; settings: source organism: Hepacivirus hominis
HLA-A*02:06 = assay: as above; settings: source organism: Hepacivirus hominis
HLA-A*03:01 = assay: as above; settings: source organism: Hepacivirus hominis
HLA-A*11:01 = assay: as above; settings: source organism: Hepacivirus hominis
HLA-A*31:01 = assay: as above; settings: source organism: Hepacivirus hominis
HLA-A*33:01 = assay: as above; settings: source organism: Hepacivirus hominis
HLA-A*68:01 = assay: as above; settings: source organism: Hepacivirus hominis
HLA-A*68:02 = assay: as above; settings: source organism: Hepacivirus hominis
HLA-B*07:02 = assay: as above
HLA-B*35:01 = assay: as above
HLA-B*51:01 = assay: as above
HLA-B*53:01 = assay: as above
HLA-B*54:01 = assay: as above
HLA-B*18:01 = assay: IEDB peptide-MHC binding, purified MHC/direct/fluorescence; filed as Kd, often an IC50 or EC50 that approximates it; ≥ and ≤ were set here for values at or beyond the usual limits of such assays; settings: source organism: Entamoeba histolytica HM-1:IMSS
HLA-B*40:01 = assay: as above; settings: source organism: Entamoeba histolytica HM-1:IMSS
[1] = source organism: Vaccinia virus WR
[2] = source organism: Vaccinia virus Copenhagen
[3] = source organism: Hepacivirus hominis
[4] = source organism: Triticum aestivum
[5] = source organism: SARS coronavirus Tor2
[6] = source organism: Mammarenavirus lassaense

Sequence: FIKNKIHLL
Kd (HLA-A*30:01; [1]): 2520 nM
Kd (HLA-A*32:01; [1]): 2810 nM
Kd (HLA-B*08:01; [1]): 0.821 nM
Kd (HLA-B*15:01; [1]): 97.7 nM
Kd (HLA-B*15:03; [1]): 6910 nM

Sequence: CLNNSLMSF
Kd (HLA-B*15:03; [2]): 0.768 nM

Sequence: RIRRFRRPM
Kd (HLA-A*30:01; [1]): 4.4 nM
Kd (HLA-A*32:01; [1]): 769 nM
Kd (HLA-B*08:01; [1]): 8.94 nM
Kd (HLA-B*15:01; [1]): 36.2 nM
Kd (HLA-B*15:03; [1]): 30.2 nM

Sequence: KKVIGFVSI
Kd (HLA-B*15:03; [1]): 7.49 nM

Sequence: SSRRYRCSF
Kd (HLA-B*08:01; [1]): 11.5 nM
Kd (HLA-B*15:01; [1]): 682 nM
Kd (HLA-B*15:03; [1]): 54.5 nM

Sequence: LPVIFLSIF
Kd (HLA-B*15:03; [1]): 162 nM

Sequence: KIGMFNLTF
Kd (HLA-A*30:01; [1]): 4760 nM
Kd (HLA-A*32:01; [1]): 0.268 nM
Kd (HLA-B*08:01; [1]): ≥ 36100 nM
Kd (HLA-B*15:01; [1]): 0.209 nM
Kd (HLA-B*15:03; [1]): 12.6 nM

Sequence: HSKKKCDDL
Kd (HLA-A*01:01): ≥ 53900 nM
Kd (HLA-A*02:01): ≥ 69400 nM
Kd (HLA-A*02:02): ≥ 70000 nM
Kd (HLA-A*02:03): ≥ 70400 nM
Kd (HLA-A*02:06): ≥ 77100 nM
Kd (HLA-A*03:01): ≥ 78000 nM
Kd (HLA-A*11:01): ≥ 77900 nM
Kd (HLA-A*31:01): ≥ 77900 nM
Kd (HLA-A*33:01): ≥ 77700 nM
Kd (HLA-A*68:01): ≥ 77700 nM
Kd (HLA-A*68:02): ≥ 69800 nM
Kd (HLA-B*07:02; [3]): ≥ 66800 nM
Kd (HLA-B*08:01; [3]): ≥ 57700 nM
Kd (HLA-B*35:01; [3]): ≥ 77400 nM
Kd (HLA-B*51:01; [3]): ≥ 51900 nM
Kd (HLA-B*53:01; [3]): ≥ 57000 nM
Kd (HLA-B*54:01; [3]): ≥ 78100 nM

Kd (HLA-B*07:02; [4]): ≥ 37400 nM
Kd (HLA-B*35:01; [4]): ≥ 87800 nM
Kd (HLA-B*51:01; [4]): ≥ 30600 nM
Kd (HLA-B*53:01; [4]): ≥ 87700 nM
Kd (HLA-B*54:01; [4]): ≥ 87700 nM
Sequence: FPGQQQPF

Sequence: SQYLSRVSL
Kd (HLA-B*15:03; [1]): 0.235 nM

Sequence: FPKNDFVSF
Kd (HLA-A*30:01; [1]): 9120 nM
Kd (HLA-A*32:01; [1]): ≥ 53700 nM
Kd (HLA-B*08:01; [1]): 15.5 nM
Kd (HLA-B*15:01; [1]): 10.4 nM
Kd (HLA-B*15:03; [1]): 4.22 nM

Sequence: EEVNIDNSF
Kd (HLA-B*15:03; [1]): 1200 nM

Sequence: YEYVLIGIL
Kd (HLA-B*18:01): 4 nM
Kd (HLA-B*40:01): ≤ 1 nM

Sequence: KTSSFKISK
Kd (HLA-A*30:01; [1]): 88.1 nM
Kd (HLA-A*32:01; [1]): ≥ 23000 nM
Kd (HLA-B*08:01; [1]): ≥ 31400 nM
Kd (HLA-B*15:01; [1]): ≥ 62200 nM
Kd (HLA-B*15:03; [1]): ≥ 68000 nM

Sequence: LKSVETSSL
Kd (HLA-B*15:03; [2]): 3.76 nM

Sequence: KPRSQMETDF
Kd (HLA-B*07:02; [5]): 78.8 nM
Kd (HLA-B*35:01; [5]): 19500 nM
Kd (HLA-B*51:01; [5]): 2500 nM
Kd (HLA-B*53:01; [5]): ≥ 53700 nM
Kd (HLA-B*54:01; [5]): ≥ 49300 nM

Sequence: RLYSEGLSI
Kd (HLA-B*15:01; [1]): 4.53 nM
Kd (HLA-B*15:03; [1]): 31.9 nM

Kd (HLA-B*07:02; [4]): ≥ 21200 nM
Kd (HLA-B*35:01; [4]): 41.3 nM
Kd (HLA-B*51:01; [4]): 5760 nM
Kd (HLA-B*53:01; [4]): 1070 nM
Kd (HLA-B*54:01; [4]): 2820 nM
Sequence: LPAMCNVY

Sequence: FPSIFSTEV
Kd (HLA-B*07:02; [6]): 244 nM
Kd (HLA-B*35:01; [6]): 97.7 nM
Kd (HLA-B*51:01; [6]): 330 nM
Kd (HLA-B*53:01; [6]): 57.3 nM
Kd (HLA-B*54:01; [6]): 4.42 nM

Sequence: FMLMETMFF
Kd (HLA-B*15:03; [1]): 0.188 nM

Sequence: YTLYKKLSF
Kd (HLA-A*30:01; [2]): 22.6 nM
Kd (HLA-A*32:01; [2]): 194 nM
Kd (HLA-B*08:01; [2]): 16.3 nM
Kd (HLA-B*15:01; [2]): 14.3 nM
Kd (HLA-B*15:03; [2]): 38.2 nM
